Experimental data published in the supplement of paper PMC9233669.
Variants at the floor of the assay were thinned out.

Assays:
[1] = tested on: biotinyl-Val-oxazolone; test: self-aminoacylation, catalytic enhancement (BVO) (fold over background); higher = more active; k-Seq, kA / k0A0; sequences stand for … in GGGAAUGGAUCCACAUCUACGAAUUC…UUCACUGCAGACUUGACGAAGCUG
Outline: (§1)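 Mutagenized RNA pools (0.43 μM; 21-nt variable region) were treated with 2–1250 μM of each biotinyl-aminoacyl-oxazolone. Conditions were 50 μL HEPES/NaCl/KCl/MgCl2/CaCl2 buffer, 5% acetonitrile, pH 6.9–7.0, room temperature, 90 minutes. Catalytic enhancement, the median kA relative to the uncatalyzed rate, was derived from streptavidin capture, qPCR and Illumina sequencing.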

[2] = tested on: biotinyl-Met-oxazolone; test: self-aminoacylation, catalytic enhancement (BMO) (fold over background); higher = more active; k-Seq, kA / k0A0; sequences stand for … in GGGAAUGGAUCCACAUCUACGAAUUC…UUCACUGCAGACUUGACGAAGCUG
Outline: as §1

[3] = tested on: biotinyl-Leu-oxazolone; test: self-aminoacylation, catalytic enhancement (BLO) (fold over background); higher = more active; k-Seq, kA / k0A0; sequences stand for … in GGGAAUGGAUCCACAUCUACGAAUUC…UUCACUGCAGACUUGACGAAGCUG
Outline: as §1

[4] = tested on: biotinyl-Phe-oxazolone; test: self-aminoacylation, catalytic enhancement (BFO) (fold over background); higher = more active; k-Seq, kA / k0A0; sequences stand for … in GGGAAUGGAUCCACAUCUACGAAUUC…UUCACUGCAGACUUGACGAAGCUG
Outline: as §1

[5] = tested on: biotinyl-Ile-oxazolone; test: self-aminoacylation, catalytic enhancement (BIO) (fold over background); higher = more active; k-Seq, kA / k0A0; sequences stand for … in GGGAAUGGAUCCACAUCUACGAAUUC…UUCACUGCAGACUUGACGAAGCUG
Outline: as §1

[6] = tested on: biotinyl-Trp-oxazolone; test: self-aminoacylation, catalytic enhancement (BWO) (fold over background); higher = more active; k-Seq, kA / k0A0; sequences stand for … in GGGAAUGGAUCCACAUCUACGAAUUC…UUCACUGCAGACUUGACGAAGCUG
Outline: as §1

| Sequence | self-aminoacylation [1] | self-aminoacylation [2] | self-aminoacylation [3] | self-aminoacylation [4] | self-aminoacylation [5] | self-aminoacylation [6] |
| --- | --- | --- | --- | --- | --- | --- |
| CUACUUCAACCAAGCGGUCUG [Fam1A.1 aminoacylation ribozyme variant] | 0.954 | 0.907 | 0.942 | 0.739 | 1.02 | 0.8 |
| AAGUUUGCUAAUGGUCGCCAG [Fam3.1 aminoacylation ribozyme variant] | 0.896 | 1.09 | 1.11 | 5.81 | 1.1 | 1.52 |
| UAUACCCUGGUCAUCGAGUGA [Fam2.1 aminoacylation ribozyme variant] | 7.52 | 14.8 | 15.5 | 25.2 | 7.17 | 16 |
| AUUCACCUAGGUCAGCGGGUG [Fam2.2 aminoacylation ribozyme variant] | 3.2 | 4.39 | 5.95 | 29.1 | 3.3 | 4.21 |
| GUUCCCCUAGGUCAUCGGGUG [Fam2.2 aminoacylation ribozyme variant] | 8.06 | 13.3 | 14.2 | 94.8 | 7.72 | 12.1 |
| UUUACCCUGGUCAUCAAGUGA [Fam2.1 aminoacylation ribozyme variant] | 1.63 | 2.24 | 1.85 | 3.22 | 1.25 | 3.07 |
| CUACUUAAAACAGUCGGUCUG [Fam1A.1 aminoacylation ribozyme variant] | 0.78 | 0.742 | 1.05 | 0.624 | 0.799 | 0.454 |
| AUUACCCUGGUAAUCGAGUCA [Fam2.1 aminoacylation ribozyme variant] | 0.838 | 0.902 | 0.783 | 0.569 | 0.825 | 0.473 |
| AUUUCCCUGGUUAUCGAGUGA [Fam2.1 aminoacylation ribozyme variant] | 4.39 | 9.01 | 8.65 | 58.2 | 4.12 | 10.9 |
| AUGACCCUGGUCAUCGAGUGU [Fam2.1 aminoacylation ribozyme variant] | 23.7 | 89.5 | 85.3 | 692 | 20.6 | 64.9 |
| AUUAUCGUGGUCAUCGAGUGA [Fam2.1 aminoacylation ribozyme variant] | 3.25 | 4.44 | 4.54 | 27.7 | 2.83 | 5.66 |
| CCACACUUCAAGCAAACGAUC [Fam1B.1 aminoacylation ribozyme variant] | 0.589 | 0.44 | 0.422 | 0.772 | 0.513 | 0.585 |
| CCAAAGUUCAAGCAAUCGGUC [Fam1B.1 aminoacylation ribozyme variant] | 1.4 | 1.32 | 1.28 | 1.35 | 1.35 | 1.17 |
| GUUCACCUAGGUCAUCCGGUG [Fam2.2 aminoacylation ribozyme variant] | 5.33 | 6.69 | 6.89 | 45.4 | 5.36 | 7.53 |
| AAGUUUGCUGAUAGUCGUAAG [Fam3.1 aminoacylation ribozyme variant] | 0.93 | 0.951 | 0.674 | 0.944 | 0.854 | 0.823 |
| AUUCACGUAGGGCAUCGGGUG [Fam2.2 aminoacylation ribozyme variant] | 5.03 | 4.63 | 6.02 | 43.3 | 3.79 | 5.13 |
| ACUCUCCUAGGUCAUCGGGUG [Fam2.2 aminoacylation ribozyme variant] | 5.61 | 8.52 | 10.2 | 49.4 | 5.49 | 8.31 |
| CCACACGCCAAGCAAUCGGUC [Fam1B.1 aminoacylation ribozyme variant] | 1.23 | 1.29 | 0.862 | 0.829 | 0.961 | 0.555 |
| AGUCGCCUAGGUCAUCGGGUG [Fam2.2 aminoacylation ribozyme variant] | 5.42 | 6.31 | 7.99 | 49 | 5.29 | 9.01 |
| CUACUCCAAACCAUCGGUCUG [Fam1A.1 aminoacylation ribozyme variant] | 0.971 | 0.961 | 1.03 | 1.16 | 1.1 | 1.01 |
| AAUCUCCUAGGUCAUCGGGUG [Fam2.2 aminoacylation ribozyme variant] | 4.51 | 6.93 | 6.83 | 35.1 | 4.3 | 5.91 |
| CCACGCUCCAAGCAAUCGGUC [Fam1B.1 aminoacylation ribozyme variant] | 1.47 | 1.07 | 1.11 | 12.6 | 1.13 | 9.91 |
| CUACUUCAAACAAACGGUCUU [Fam1A.1 aminoacylation ribozyme variant] | 0.901 | 0.982 | 0.879 | 0.824 | 0.904 | 0.74 |
| CUGCUUCAAACAAGCGGUCUG [Fam1A.1 aminoacylation ribozyme variant] | 0.731 | 0.597 | 0.777 | 0.392 | 0.718 | 0.576 |
| AAGUUUGCUAAGAGUCGCAAU [Fam3.1 aminoacylation ribozyme variant] | 1.01 | 0.797 | 1.05 | 1.24 | 1.42 | 1.74 |
| AUUCACCCAGGUCAUCGUGUG [Fam2.2 aminoacylation ribozyme variant] | 1.04 | 1.04 | 1.29 | 3.46 | 0.798 | 1.1 |

| Sequence | self-aminoacylation [1] | self-aminoacylation [2] | self-aminoacylation [3] | self-aminoacylation [4] | self-aminoacylation [5] | self-aminoacylation [6] |
| --- | --- | --- | --- | --- | --- | --- |
| AUUACCCUGGUCCUCGAGUAA [Fam2.1 aminoacylation ribozyme variant] | 1.36 | 0.966 | 1.33 | 0.542 | 1.35 | 1.64 |
| CUCCUUCAAAUAAUCGGUCUG [Fam1A.1 aminoacylation ribozyme variant] | 0.835 | 1.08 | 1.23 | 13.4 | 1.13 | 11.2 |
| CCACACUAAAAGCAAUCGGUC [Fam1B.1 aminoacylation ribozyme variant] | 0.959 | 0.688 | 0.677 | 0.761 | 0.867 | 0.746 |
| ACACACUUCAACCAAUCGGUC [Fam1B.1 aminoacylation ribozyme variant] | 1.56 | 1.65 | 2.16 | 32.5 | 1.69 | 26.6 |
| CCACACUUCGAGCAAUCGGUU [Fam1B.1 aminoacylation ribozyme variant] | 1.63 | 1.83 | 1.1 | 0.768 | 1.41 | 1.65 |
| AUUAGCCUGGUCAUCAAGUGA [Fam2.1 aminoacylation ribozyme variant] | 2.45 | 4.31 | 4.41 | 17.9 | 2.74 | 4.94 |
| AUUACCAUGGUCAUCGAGAGA [Fam2.1 aminoacylation ribozyme variant] | 0.864 | 0.859 | 0.937 | 0.497 | 0.797 | 1.38 |
| AAGUUUGCUAAUAGUGGCACG [Fam3.1 aminoacylation ribozyme variant] | 0.689 | 0.636 | 0.622 | 0.682 | 0.684 | 0.733 |
| CUACUUCAAGGAAUCGGUCUG [Fam1A.1 aminoacylation ribozyme variant] | 1.42 | 1.64 | 1.97 | 8.77 | 1.54 | 3.64 |
| CUACUUCAAACAAACGGUUUG [Fam1A.1 aminoacylation ribozyme variant] | 0.796 | 0.719 | 0.67 | 0.656 | 0.803 | 0.396 |
| CCAUACUUCAAGCAAUCGGUA [Fam1B.1 aminoacylation ribozyme variant] | 1.26 | 1.22 | 1.1 | 1.04 | 1.33 | 1.1 |
| AAGUUUGCUACUAGUCGUAAG [Fam3.1 aminoacylation ribozyme variant] | 0.783 | 0.848 | 0.759 | 0.833 | 0.772 | 0.867 |
| CUACUUCAAACAAUCGAUCAG [Fam1A.1 aminoacylation ribozyme variant] | 0.654 | 0.497 | 0.659 | 1.15 | 0.554 | 0.617 |
| AUUCACAUAGGUCAUCGGGAG [Fam2.2 aminoacylation ribozyme variant] | 1.19 | 1.13 | 0.985 | 0.953 | 1 | 1.76 |
| AUUACCCUGGUCAUCAACUGA [Fam2.1 aminoacylation ribozyme variant] | 1.13 | 0.667 | 0.851 | 0.556 | 0.789 | 0.571 |
| AAGUUUGUUUAUAGUCGCAAG [Fam3.1 aminoacylation ribozyme variant] | 1.24 | 1.34 | 1.26 | 1.47 | 1.3 | 1.52 |
| AAGUUUGCAAAUAGUCGCAAU [Fam3.1 aminoacylation ribozyme variant] | 1.26 | 1.64 | 1.27 | 2.03 | 1.35 | 1.78 |
| AUUCACCUAGCUCAUGGGGUG [Fam2.2 aminoacylation ribozyme variant] | 2.8 | 5.15 | 5.64 | 32.8 | 2.97 | 4.56 |
| AAGUUUGCUAAUAGUCGUAAU [Fam3.1 aminoacylation ribozyme variant] | 1.23 | 1.19 | 1.07 | 1.24 | 1.19 | 1.13 |
| AUUUUCCUGGUCAUCGAGUGA [Fam2.1 aminoacylation ribozyme variant] | 4.13 | 8.02 | 8.6 | 10.8 | 4.2 | 9.4 |
| AUUACUCUGGUCAUCGAGUGU [Fam2.1 aminoacylation ribozyme variant] | 2.57 | 4.24 | 4.37 | 4.35 | 2.52 | 3.92 |
| AUUACCCUGGUCAUGGAGUUA [Fam2.1 aminoacylation ribozyme variant] | 1.13 | 1.23 | 0.899 | 0.664 | 1.04 | 0.695 |
| AAGUUUACUAGUAGUCGCAAG [Fam3.1 aminoacylation ribozyme variant] | 1.14 | 1.53 | 1.29 | 1.48 | 1.44 | 1.29 |
| AAGUUCGCUAAUAGUCGCAUG [Fam3.1 aminoacylation ribozyme variant] | 2.37 | 2.27 | 2.88 | 8.49 | 2.16 | 3.05 |
| AUUACCCGGGUCAUCGAGUGG [Fam2.1 aminoacylation ribozyme variant] | 1.81 | 1.63 | 1.92 | 10.1 | 1.25 | 2.45 |
